Measured values as given in PMC7160150, “Transcriptional repression of GIF1 by the KIX-PPD-MYC repressor complex controls seed size in Arabidopsis”.

Key:
[1] = target: T1, MBP-MYC3 (Arabidopsis thaliana (Col-0), UniProt Q9FIP9 1-592); assay: EMSA; EMSA kit (Thermo), room temperature, 20 min; binding buffer not stated (protein extraction buffer: 50 mM HEPES pH 7.5, 150 mM NaCl, 1 mM EGTA, 1% Triton X-100); details: protein: recombinant; tags: MBP; chain copies: 2; label: 5'-biotin
[2] = target: T2, MBP-MYC4 (Arabidopsis thaliana (Col-0), UniProt O49687 1-589); assay: as above; details: protein: recombinant; tags: MBP; chain copies: 2; label: 5'-biotin
T2 sequence (O49687 whole entry): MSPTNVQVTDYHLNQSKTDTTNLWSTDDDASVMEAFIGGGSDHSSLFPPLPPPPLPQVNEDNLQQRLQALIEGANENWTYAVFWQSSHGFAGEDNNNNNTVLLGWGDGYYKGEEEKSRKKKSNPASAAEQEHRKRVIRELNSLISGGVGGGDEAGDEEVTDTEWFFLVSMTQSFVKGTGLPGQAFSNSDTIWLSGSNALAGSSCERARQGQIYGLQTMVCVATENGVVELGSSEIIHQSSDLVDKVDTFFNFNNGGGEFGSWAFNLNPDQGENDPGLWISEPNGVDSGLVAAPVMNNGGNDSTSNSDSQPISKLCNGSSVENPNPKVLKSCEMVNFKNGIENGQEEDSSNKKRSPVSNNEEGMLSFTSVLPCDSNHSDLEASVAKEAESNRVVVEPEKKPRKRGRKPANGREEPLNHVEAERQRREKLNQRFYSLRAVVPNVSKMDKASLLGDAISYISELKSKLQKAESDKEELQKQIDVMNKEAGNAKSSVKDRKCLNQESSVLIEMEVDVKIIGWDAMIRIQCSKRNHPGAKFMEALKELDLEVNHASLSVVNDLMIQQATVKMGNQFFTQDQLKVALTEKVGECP

[3] = target: T1, MBP-MYC3; assay: competition; competes with biotin probe A; EMSA kit (Thermo), room temperature, 20 min; binding buffer not stated (protein extraction buffer: 50 mM HEPES pH 7.5, 150 mM NaCl, 1 mM EGTA, 1% Triton X-100); details: protein: recombinant; tags: MBP; chain copies: 2
[4] = target: T2, MBP-MYC4; assay: as above; details: protein: recombinant; tags: MBP; chain copies: 2

T1 sequence (Q9FIP9 whole entry): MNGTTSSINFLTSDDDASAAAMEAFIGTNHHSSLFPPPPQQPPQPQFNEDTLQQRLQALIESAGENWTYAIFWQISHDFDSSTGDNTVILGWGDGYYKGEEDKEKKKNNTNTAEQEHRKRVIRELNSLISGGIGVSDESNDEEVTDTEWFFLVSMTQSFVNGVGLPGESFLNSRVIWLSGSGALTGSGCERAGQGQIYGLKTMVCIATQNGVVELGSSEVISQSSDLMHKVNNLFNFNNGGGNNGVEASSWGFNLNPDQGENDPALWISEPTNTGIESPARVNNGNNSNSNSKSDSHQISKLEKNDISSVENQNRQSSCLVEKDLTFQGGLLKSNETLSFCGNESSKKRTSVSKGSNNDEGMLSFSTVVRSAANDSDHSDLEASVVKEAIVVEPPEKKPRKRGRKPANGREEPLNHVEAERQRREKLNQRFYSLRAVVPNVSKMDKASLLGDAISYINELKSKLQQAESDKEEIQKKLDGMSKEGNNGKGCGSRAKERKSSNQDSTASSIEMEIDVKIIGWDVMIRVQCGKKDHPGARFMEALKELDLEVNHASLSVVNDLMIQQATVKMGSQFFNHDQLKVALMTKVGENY

B1: probe A (dsDNA)
DNA 1: TAAAGTATGACTCGTCACGTGACCTCCTCTTCTTCGC
DNA 2: GCGAAGAAGAGGAGGTCACGTGACGAGTCATACTTTA
binding result [1]: binds
binding result [2]: binds

B2: unlabelled probe A (dsDNA)
DNA 1: B1 DNA 1
DNA 2: B1 DNA 2
binding result [3]: binds
binding result [4]: binds

B3: probe A-m (dsDNA)
DNA 1: TAAAGTATGACTCGTAGCCGTACCTCCTCTTCTTCGC
DNA 2: GCGAAGAAGAGGAGGTACGGCTACGAGTCATACTTTA
binding result [1]: no binding
binding result [2]: no binding
